From patent publication CN116178540A (SANYOU BIO INC, dated 2023) come the findings set out here.

Changes are numbered by the printed parent chain.

One may read the Kd as the free concentration of one partner at which half of the binding sites on the other are occupied at equilibrium, for simple one-to-one binding. A low value points to tighter binding. The term EC50 denotes the concentration at which the effect is half-maximal. The IC50 is the point on the concentration scale where inhibition reaches its midpoint. A high value points to weaker potency in that assay. One may read the koff as the rate constant with which the complex falls apart. One may read the kon as the rate constant with which the complex forms. A higher kon goes with faster complex formation.

Assay [1] deals with T1, hANG2-His (human, UniProt O15123).
T1 chain: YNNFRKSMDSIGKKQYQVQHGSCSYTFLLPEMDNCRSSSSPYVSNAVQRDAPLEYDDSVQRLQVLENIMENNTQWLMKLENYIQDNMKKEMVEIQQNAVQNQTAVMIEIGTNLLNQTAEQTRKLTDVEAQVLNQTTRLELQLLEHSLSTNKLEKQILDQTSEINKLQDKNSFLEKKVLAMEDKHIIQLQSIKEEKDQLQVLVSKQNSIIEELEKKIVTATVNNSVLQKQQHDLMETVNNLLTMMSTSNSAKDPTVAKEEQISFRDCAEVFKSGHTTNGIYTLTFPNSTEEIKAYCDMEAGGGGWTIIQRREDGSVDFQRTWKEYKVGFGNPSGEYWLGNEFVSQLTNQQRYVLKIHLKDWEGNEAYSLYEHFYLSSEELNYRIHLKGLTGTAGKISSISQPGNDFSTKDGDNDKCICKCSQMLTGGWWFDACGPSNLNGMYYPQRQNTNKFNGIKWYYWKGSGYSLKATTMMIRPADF
Description: BLI. For orientation: In BLI a coated tip is dipped into the sample, and binding shifts an interference pattern.

Assay [2] deals with T1, hANG2-His. The assay can be described thus: ELISA.
A further assay concerns the target T2, hANG1-Fc (human, UniProt Q15389).
T2 chain: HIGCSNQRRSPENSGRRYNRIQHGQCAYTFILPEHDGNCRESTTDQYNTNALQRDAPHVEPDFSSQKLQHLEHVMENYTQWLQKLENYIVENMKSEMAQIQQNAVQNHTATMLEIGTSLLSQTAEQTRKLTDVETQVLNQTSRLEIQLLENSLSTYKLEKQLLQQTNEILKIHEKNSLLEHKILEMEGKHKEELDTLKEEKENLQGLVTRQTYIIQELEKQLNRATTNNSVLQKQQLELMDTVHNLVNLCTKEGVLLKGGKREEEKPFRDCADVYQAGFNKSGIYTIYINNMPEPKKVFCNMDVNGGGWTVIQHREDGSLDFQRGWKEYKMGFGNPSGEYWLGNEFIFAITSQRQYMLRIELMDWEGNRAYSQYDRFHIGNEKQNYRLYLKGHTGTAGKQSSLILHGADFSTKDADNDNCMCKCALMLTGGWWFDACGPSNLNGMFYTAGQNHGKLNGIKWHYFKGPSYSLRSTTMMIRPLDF
Description: ELISA.

Assay [3] has as its target T3, hANG2-Fc (human, UniProt O15123).
T3 chain: T1 chain
Description: FACS competition (TIE2-HEK293).

For assay [4], the target named is T3, hANG2-Fc. The assay can be described thus: competition ELISA (TIE2 blocking). A general note: ELISA stands for enzyme-linked immunosorbent assay.
For assay [5], the target named is T4, hANG2-His (human, UniProt O15123 19-496, limits assumed).
T4 construct: also called 人源ANG2; ANGPT2; not shown: C-terminal His tag
T4 sequence (looked up): T1 chain
Description: BLI (Gator), antibody captured on sensor, hANG2-His 100/50/25 nM.

For assay [6], the target named is T4, hANG2-His. The assay is described as above. This is another data set of the same source.

B1: nesvacumab (antibody, V domains shown)
VH: EVQLVESGGGLVQPGGSLRLSCAASGFTFSSYDIHWVRQATGKGLEWVSAIGPAGDTYYPGSVKGRFTISRENAKNSLYLQMNSLRAGDTAVYYCARGLITFGGLIAPFDYWGQGTLVTVSS
VL: EIVLTQSPGTLSLSPGERATLSCRASQSVSSTYLAWYQQKPGQAPRLLIYGASSRATGIPDRFSGSGSGTDFTLTISRLEPEDFAVYYCQHYDNSQTFGQGTKVEIK
Turning to B1, the Kd with hANG2-His [1] was determined as 1.17 nM. Moreover, in the assay with hANG2-His [2], the EC50 is 0.442 µg/mL. Further, the binding result with hANG1-Fc was “no binding”. Moreover, the half-inhibitory concentration (IC50) with hANG2-Fc [3] was determined as 0.362 µg/mL; in the assay with hANG2-Fc [4], 1.58 µg/mL.

B2: 17 (antibody, V domains shown)
VH: EVQLVESGGGVVKPGGSLRLSCAASGFTFNKYTINWVRQTPGKGLELVADISSGGDYVNYADSVKGRFTISRDNAKDSVYLLMNGLRAEDTAVYYCARDALTYSNNWLDSWGQGTLVTVSS
VL: DIQLTQSPSFLSASVGDRVTITCRASQGISSYLAWYQQKPGKAPKLLIYAASTLQSGVPSRFSGGGYGTDFTLTISSLQPEDFATYYCQQFESYPLTFGGGTRLEIK
As for B2, the concentration for a half-maximal effect (EC50) with hANG2-His [2] turned out to be 0.12 µg/mL. In addition, the binding result in the assay with hANG1-Fc was “no binding”. In addition, the IC50 with hANG2-Fc [3] is 0.323 µg/mL; with hANG2-Fc [4] it was 0.547 µg/mL.

B3: 抗体78A74-25 (antibody, IgG1, V domains shown)
VH: QVQLVESGGGLVKPGGSLRLSCAASGFTFSSYSMNWVRQAPGKGLEWVAVISYDGSNKYYADSVKGRFTISRDNSKNTLYLQMNSLRAEDTAVYYCAKATLDGYTAGYYYGMDVWGQGTTVTVSS
VL: EIVLTQSPATLSLSPGERATLSCRASQSVSSYLAWYQQKPGQAPRLLIYDASNRATGIPARFSGSGSGTDFTLTISSLEPEDFAVYYCQQRSNWPPELYFGQGTKVEIK
Take B3: in the assay with hANG2-His [5], the “fold affinity against nesvacumab” value was roughly 2 fold. In the assay with hANG2-His [6], the affinity, expressed as Kd, was 0.828 nM; the off-rate constant (koff) was 0.000161 s⁻¹; the kon turned out to be 194000 M⁻¹ s⁻¹.

B4: 抗体78A74-7 (antibody, IgG1, V domains shown)
VH: B3 VH
VL: B3 VL with Q90L, R91M, L98W, Y99T
On to B4, for which the “fold affinity against nesvacumab” value with hANG2-His [5] is roughly 2 fold. In the assay with hANG2-His [6], this molecule came in with a Kd of 0.544 nM, an off-rate constant (koff) of 0.000103 s⁻¹ and a kon of 189000 M⁻¹ s⁻¹.

B5: 抗体78A74-36 (antibody, IgG1, V domains shown)
VH: B3 VH
VL: B3 VL with S92T, N93M, L98W, Y99T
Consider B5, for which, in the assay with hANG2-His [6], the Kd was 1.32 nM, the koff turned out to be 0.000263 s⁻¹ and the kon is 200000 M⁻¹ s⁻¹.

B6: 抗体78A74-21 (antibody, IgG1, V domains shown)
VH: B3 VH with A99E
VL: B3 VL with S30G, W94G, L98W, Y99T
As to B6, the “fold affinity against nesvacumab” value with hANG2-His [5] is roughly 2 fold. In the assay with hANG2-His [6], this molecule returned a dissociation constant (Kd) of 0.687 nM, a koff of 0.000132 s⁻¹ and an on-rate (kon) of 192000 M⁻¹ s⁻¹.

B7: 抗体78A74-35 (antibody, IgG1, V domains shown)
VH: B3 VH
VL: B3 VL with E97A, L98M, Y99T
In the assay with hANG2-His [6], B7 displayed a Kd of 1.52 nM, a koff of 0.000284 s⁻¹ and a kon of 187000 M⁻¹ s⁻¹.
